Source: patent US7005283B2, “Cytochrome P450 oxygenases and their uses” (Washington State University Research Foundation, priority 1999, dated 2006)

Experiments:
[1] = In vivo assay of yeast cells expressing recombinant oxygenases, radio-HPLC, substrate taxadien-5α-ol; type: cell-based, Saccharomyces cerevisiae; conditions: yeast transformants, radio-HPLC and GC-MS
Source text: (§1) Transformed yeast cells that fimctionally express a recombinant cytochrome P450 gene from Taxus (by CO-difference spectrum) can be tested in vivo for their ability to oxygenate (hydroxylate or epoxidize) taxoid substrates fed exogenously to the cells, thereby eliminating the need for microsome isolation for preliminary in vitro assays.
(§2) Accordingly, several clones of the available full-length clones were expressed in induced yeast host cells.
(§3) Isolated transformants for each full-length cytochrome P450 clone shown to express a functional enzyme by CO-difference spectrum (ten clones) were grown to stationary phase in 2 mL SGI medium at 30° C. and used to inoculate a 10-mL expression culture (in YPL medium). Approximately 8 hours after induction, cells were harvested by centrifugation (10 minutes at 1500 rpm), and the pellet was resuspended in 2 mL of fresh YPL medium.
(§4) To eliminate additional complication and uncertainty associated with microsome isolations for in vitro assays, 10^6 dpm of [20-^3H3]taxa-4(5),11(12)-diene (16 Ci/mol) or [20-^3H2]taxa-4(20),11(12)-diene-5-α-ol (4.0 Ci/mol), or other taxoid substrate were added directly to the cell suspension to assay conversion in vivo. After 12 hours of incubation at 30° C. with agitation (250 rpm), the mixture was treated for 15 minutes in a sonication bath and extracted 3 times with 2 mL diethyl ether to insure isolation of the biosynthetic products. These ether extracts, containing residual substrate and derived product(s), were concentrated to dryness, resuspended in 200 μL of CH3CN, and filtered. These samples were analyzed by radio-HPLC (Hefner et al., Chemistry and Biology 3:479–489, 1996) using a 4.6 mm i.d.×250 mm column of Econosil C18, 5 μ (Alltech, Deerfield, Ill.) with a gradient of CH3CN in H2O from 0% to 85% (10 minutes at 1 mL/minute), then to 100% CH3CN over 40 minutes.

[2] = type: binding, Saccharomyces cerevisiae
Source text: CO-sensor of the 19 full-length cytochrome P450 clones from Taxus, thus far obtained, ten have yielded detectable CO-difference spectra (Table 2). […] These alternative expression systems for cytochrome P450 genes include the yeast Pichia pastoris, for which expression vectors and hosts are commercially available (Invitrogen, Carlsbad, Calif.), as well as established E. coli and baculovirus-insect cell systems for which general expression procedures have been described (Barnes, Methods Enzymol. 272:1–14, 1996;Gonzalez et al., Methods Enzymol. 206:93–99, 1991;Lee et al., Methods Enzymol. 272:86–98, 1996;and Lupien et al., Arch. Biochem. Biophys. 368:181–192, 1999).
Appropriate restriction sites were introduced by standard PCR methods (Innis et al., PCR Protocols: A Guide to Methods and Applications, Academic Press, San Diego, Calif., 1990) immediately upstream of the ATG start codon and downstream of the stop codon of all full-length cytochrome P450 clones. These modified amplicons were gel-purified, digested with the corresponding restriction enzymes, and then ligated into the expression vector pYeDP60. The vector/insert junctions were sequenced to ensure that no errors had been introduced by the PCR construction. Verified clones were transformed into yeast using the lithium acetate method (Ito et al., J. Bacteriol. 153:163–168, 1983). Isolated transformants were grown to stationary phase in SGI medium (Pompon et al., Methods Enzymol. 272:51–64, 1996), and used as inocula for a large-scale expression culture grown in YPL medium (Pompon et al., Methods Enzymol. 272:51–64, 1996). Approximately 24 hours after induction of cytochrome P450 expression with galactose (to 10% final concentration), a portion of the yeast cell culture was harvested by centrifugation. One-half of the culture was treated with carbon monoxide, and the cytochrome P450 CO-difference spectrum was recorded directly (using untreated cells as a control) by spectrophotometry (Omura and Sato, J. Biol. Chem. 239:2370–2378, 1964).

[3] = In vivo assay of yeast cells expressing recombinant oxygenases, radio-HPLC, substrate taxadiene; type: cell-based, Saccharomyces cerevisiae; conditions: assayed with Taxadiene; graded symbols, key not given
Source text: as §1, §2, §3, §4

Row | Molecule | product formed from taxadien-5α-ol [1] | CO diff. spec. [2] | product identified HPLC peak [3]
1 | clone F51: Taxus cuspidata cytochrome P450 oxygenase, full-length clone, SEQ ID NO: 47 (nt) / 60 (aa) (protein, listed as Taxus cuspidata, not fully specified; (1)..(492) “Xaa” equals any peptide) MDTIRASFGEVIQPEYSPLIISXALAAFLGIVIFSIFSSTRRSYVNLPPGNLGLPFIGETIQFLGALQSEKPHTFFDERVKKFGKVFKTSLIGDPTVVLCGPAGNRLVLSNEDKLVQSAGPKSFLKLFGEDSVAAKREESHRILRSALGRFLGPHALQNYIGKMNSEMQRHFDDKWKGKDEVKVLPLVRGLIFSIATSLFFNINDDRQREQLHGLLDTILVGSMTIPLNIPGTLFRKAVKARAKLDEILFALIENRRRELRSGLNSGNQDLLSSLLTFKDEKGNPLTDKEILDNFSVMLHASYDTTVSPTVLILKLLASNPECYEKVVQEQLGILASKKEGEEVNWKDLKAMPYTWQAIQEPLXMPXQLLECFEELSLIFSWKAIQFQKDGQLCGXLIVNGREEFFNEPDKFKPSRFEEGKPLDPYTFIPFGAGVRICAGWEFAKAELLLFVHPFVKNFSGCIIIDPNEKISGDPFPPLPTSGQLMKLIPRS | diol products | + | No
2 | clone F12: Taxus cuspidata cytochrome P450 oxygenase, full-length clone, SEQ ID NO: 43 (nt) / 56 (aa) (protein, listed as Taxus cuspidata) MDTFIQHESSPLLLSLTLAVILGTILLLILSGKQYRSSRKLPPGNMGFPLIGETIALISDTPRKFIDDRVKKFGLVFKTSLIGHPAVVICGSSANRFLLSNEEKLVRMSLPNAVLKLLGQDCVMGKTGVEHGIVRTALARALGPQALQNYVAKMSSEIEHHINQKWKGKDEVKVLPLIRSLVFSISTSLFFGINDEHQQKRLHHLLETVAMGLVSIPLDFPGTRFRKALYARSKLDEIMSSVIERRRSDLRSGAASSDQDLLSVLVTFKDERGNSFADKEILDNFSFLLHALYDTTISPLTLIFKLLSSSPECYENIAQEQLEILGNKKDREEISWKDLKDMKYTWQAVQETLRMFPPVYGYIREALTDIDYDGYTIPKGWRILCSPHTTHSKEEYFDEPEEFRPSRFEDQGRHVAPYTFIPFGGGLRICAGWEFAKMEILLFMHHFVKTFSHFIPVDPNEKISRDPLPPIPVKGFSIKPFPRS | more polar products | + | No
3 | clone F7: Taxus cuspidata cytochrome P450 oxygenase, full-length clone, SEQ ID NO: 83 (nt) / 89 (aa) (protein, listed as Taxus cuspidata) MDSFTFVTIKMGKIWQVIQVEYILSLTLTAILLFFFRYRNKSSHKLPPGNLGFPFIGETIQFLRSLRSQTPEFFFDERVKKFGPVFKTSLIGAPTVIFCGAAGSRLVLSNEDKLVQMESPSSLKKLMGENSILYKREEEHRILRSALSRFLGPQALQTYIAKMSTEIERHINEKWKGKEEVKTLPLIRGLVFSIASSLFFDINDEPQQERLHHHLESLVAGSMAVRLDFPGTRFRKAVEARSKLDEALHSLIKSRRSDLLSGKASSNQDLLSVLLSFKDERGNPLRDEEILDNFSLILHASYDTTISPMVLTLKLLSSNPECYDKVVQEQFGILANKKEGEEISWKDLKAMKYTWQVVQETLRMFPPLFGSFRKAMVDINYDGYTIPKGWIVLWTTYSTHVKEEYFNEPGKFRPSRFEHDGRHVAPYTFLPFGGGLRTCPGWEFSKTEILLFIHHFVKTFGSYLPVDPNEKISADPFPPLPANGFSIKLFPRS |  | − | No
4 | clone F82: Taxus cuspidata cytochrome P450 oxygenase, full-length clone, SEQ ID NO: 81 (nt) / 87 (aa) (protein, listed as Taxus cuspidata) MDAFNVLMGPLAKFDNFMQLGSYSENLSVTITVTAIAVITLLLVLIRSKPQSCVNLPPGKLGYPFIGETLQLLQAFRSNRPQQFFDERQKKFGSVFKTSLIGDRTVVLCGPSGNRLLLSNENKLVEASWPSSSIKLIGEDSIAGKNGEKHRILRAAVNRYLGPGALQNYMAKMRSEIEHHMNEKWKGKEQVKVLPLVKENVFSIATSLFFGVNDDGERERLHDLLETALAGVFSIPLDFPGTNYRKALEARLKLDKVLSSLIERRRSDLRSGVASGNEDLLSVWLTFKDEEGNPLTDKEILDNFSTLLHASYDTTTSALTLTLKLMSSSTECYHKVVQEQLRIVSNKKEGEEISLKDLKDMKYTWQVVQETLRMFPPLFGSFRKAITDIHYDGYTIPKGWKVLWTTYSTHGREEYFNEPEKFMPSRFEEEGRHVAPYTFLPFGAGVRTCPGWEFSKTQILLFLHYFVKTFSGYIPLDPDEKVLGNPVPPLPANGFAIKLFPRPSFDQGSPME |  | − | No
5 | clone F9: Taxus cuspidata cytochrome P450 oxygenase, full-length clone, SEQ ID NO: 48 (nt) / 61 (aa) (protein, listed as Taxus cuspidata, not fully specified; (1)..(500) “Xaa” equals any peptide) MDSFNFLRGIGADFGGFIQFQSSPAVLSLSLITTILGVLLLWFFLHKNGSSVTLPPGNLGFPFIGETIPFLRALRSETPQTFFDERVKKFGVVFKTRIVGHPTVVLCGPEGNRFLLSNEDKLVQASLPNSSEKLIGKYSILSKRGEEHRILRAALARFLRPQALQGYVAKMSSEIQHHIKQKWKGNDEVKVLPLIRTLIFNIASSLFFGINDEHQQEQLHHLLEAIVLGSLSVPLDFPGTRFRKALDARSKLDEILSSLMESRRRDLRLGTASENQDLLSVLLTFKDERGNPLTDKEIFDNFSFMLHASYDTTVSPTGLMLKLLFSSPDCYEKLVQEQLGIVGNKKEGEEISWNDLKAMKYTCKVVQESMRMLPPVFGSYRKAXTYIHYDGYTIPKGWNIFWSPYTTHGKEEYFNEADKFMPSRFEEGKYVAPYTFLPFGAGLRVCPGWEFAKTEILLFVHHFITTFSSYIPIDPKDKISGDPFPPLPTNGFSMKLFTRS | more polar products | + | No
6 | clone F72: Taxus cuspidata cytochrome P450 oxygenase, full-length clone, SEQ ID NO: 54 (nt) / 67 (aa) (protein, listed as Taxus cuspidata) MDVFYPLKSTVAKFNECFPAILFIVLSAVAGIVLPLLLFLRSKRRSSVGLPPGKLGYPFIGESLLFLKALRSNTVEQFLDERVKNFGNVFKTSLIGHPTVVLCGPAGNRLILANEEKLVQMSWPKSSMKLMGEKSITAKRGEGHMIIRSALQGFFSPGALQKYIGQMSKTIENHINEKWKGNDQVSVVALVGDLVFDISACLFFNINEKHERERLFELLEIIAVGVLAVPVDLPGFAYHRALQARSKLNAILSGLIEKRKMDLSSGLATSNQDLLSVFLTFKDDRGNPCSDEEILDNFSGLLHGSYDTTVSAMACVFKLLSSNPECYEKVVQEQLGILSNKLEGDEITWKDVKSMKYTWQVVQETLRLYPSIFGSFRQAITDIHYNGYIIPKGWKLLWTPYTTHPKEMYFSEPEKFLPSRFDQEGKLVAPYTFLPFGGGQRSCPGWEFSKMEILLSVHHFVKTFSTFTPVDPAEIIARDSLCPLPSNGFSVKLFPRSYSLHTGNQVKKI |  | + | No
